Measurements published in a protein production outcome set (Wang et al. 2014).

Assay: label from the status in PepcDB records
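Note: failed if final PepcDB status was selected cloned or expressed and not failed if soluble or beyond.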

Sequence: MMRFVIGFLLSILASISLVSPANAAVIDHDKVVGFEEVTPTTITQKVAKRFQPYLTVSTGCVPFPAVDADGNTSGGLAPTGPHNGGCSSHIGQVYSRSTWHNGVWAIMYAWYFPKDSPSPGLGHRHDWEGIVVWVDNPANPSPQLLSIAYSQHGNFYNVAPTDRNTREQRPLIRYSHAWPLNHSLWIHDQVGGTQPLIGWDDLTPAARHALNTTDFGAANVPFNDHNFINNLRKAWYRLEHHHHHH
- protein production: failed

Sequence: MMRMKVKVVVNGKEYEVEVEEVMPGKFRVTLEGETYEVETSAGFVTSPKQVQVPTPAPTPAPAPTPTPAPAPSSKTVVSENVVSAPMPGKVLRVLVRVGDRVRVGQGLLVLEAMKMENEIPSPRDGVVKRILVKEGEAVDTGQPLIELG
- protein production: not failed

Sequence: MMRPLCFFLLIFLLSGNPVMAAELRPFICVNEKDHLPSLDPQADAWYREAVALAKPDTLRPWDRIVDLYSKAVERGHWKAMHNLASLYRTGWPGGVEKDTQKALDLYQKMIDLKVPQGFYDMAAMIGNRAGVKNPATDGLTFLDKAASLGNPPALTELGRLYIYVAGQDELGLKYTNCAAGQGYAPANYELAMYYRLVAHNYPKAAGYYLLAASQGNDDAAFFMSGVFDKTSPDVDRMWYAPDEKLHKLYDGIYDQLAADPDLRFPNLIKDHPLPPHPTQGYDADRPDWKPGQ
- protein production: failed

Sequence: MMRRFKFVVQNITAKIVYTRICMGTIQKIRTDVNVLHAAIHRIEWLFETFSSVCLSFSGGKDSTVLLHLTADVARRKKRRFSVLFIDWEAQYQCTIAHILKMREMYRDVTETFYWVALPLTTVNGVSQFQPEWICWEPGVEWVRQPPDDAITDMSYFPFYRYAMTFEEFVPAFSSWFAGNRCGVAILTGVRADESLNRFMGLVSQRKLRYADDKPWTTASPEGFYYTLYPLYDWKARDIWIYNARTRAIYNPLYDLMYRAGVPLRNMRVCEPFGPEQRKGLWLYHVLEPETWARMCERVSGAASGALYANESGAYFALRKRITKPPHHTWRSYAMFLLDVMPERTAEHYRNKIAVYLRWYQTRGFPDDIPDEQENDLGSRDIPSWRRICKTLIKNDFWCRTLSFSPNKPRHYERYLQRMKERRKEWGIL
- protein production: failed

Sequence: MMRSSKIGFRSLAVWPFSLTAFFFFLLHPCVSAQRVYKPEDVPNVQLADSTRLVTDEAGLLSNAQEEVMNGRLRAIRSSHAVEFAVVTLPSIGDAPLEDFTLKLARQWGVGNEKNNNGLLLVLVLDQRRVRFETGYGLEGYLPDGLLSRIIHDRMIPHFRSGNYAEGLSEGVLAVQQVLDGSYDVKPDGGDRSAVSRVSWGTIFIFYCFFMLLASASVLYQLTSYRRQYPRATAVEEYEFLRRRISMLGCVFLLLFPPGFIVVMAIIKSRQNKLKKEMAVCPCCHQHSVHLLDQSLEEDRYLSPSQQMEHKLKSRDFRVYACSSCDHTQIIGYDHPGTSYKRCPNCGTVALRYMGEKRVRTDRGMMIRKEWRCLYCGENHTQEYRDNNDAEAAATGILLGSLLGRGGRSGGFGGGFGGGGFGGGSFGGGGASGGWLEHHHHHH
- protein production: failed

Sequence: MMRSVGAVGEPLVVMCVACPRRGGCVVTVVAAAKSCWCRGVSRNLNPGLCPARRVSVRHSGSCILWCGLPSGRVAAVSLPSDPRRFQRIYIEWQSIYLLNMAQQQRMQGQPMIIMGDDAQRVKDRDAQEHNISAARAVADAVRSTLGPKGMDKMLVSSMGDVTVTNDGVTILQEMDIDNPTAEMIVEVAETQEDEAGDGTTTAVAIAGELLKNAEDLLERDIHPTAIIKGYNLAAEQAREEVDNVAVDVDPDDKDLIRSVAETSMTGKGAELDKELLSSIIYDAVNQVAVETNDGGIVVDAANINIETQTGHGVNESQLLRGAAISKDPVHDQMPAAVEDADVLLLNEAIEVEEAEADTSVNIESPDQLQSFLDQEEKQLKEKVQQIADTGANVVFCQKGIDDMAQHYLAKEGILAVRRTKKSDIEFLTNVLDASVVTDLDAASEADVVAGSVTRDSDDELFYVEGESEQAHGVTLLLRGSTDHVVDELERGVSDALDVSAQTLSDGRVLPGGGATEVEVASRLRDFADSVSGREQLAVEAFADSLELVPRVLAENAGLDSIDTLVDLRSAHENDDDEHIGLNVLSGDLEDTFEAGVVEPAHAKEQAVTSASEAANLVLKIDDIISAGDLSTDKGDDDGGAGGMGGGMGGGMGGMM
- protein production: failed

Sequence: MMSDLPRDLLEERLSRVPVKSLREARFTCKNWKTLSKKRSFTKKHLAQEATSRESEFKVVMVLHCKVYLTSINLRGIHNGFDPSINRQAKLVSLNGTDQIDISEVYHCDGLLLCISKDYTRVVVWNPYRSQTLWLKPSSPDHRMDWYICAIGYEKRKSSLRYKVLRFVDFAEEEFVEYEIYELKSNSWRVLDVTSDWEVEFYARGVSLKGNTYWFATDKFPEISSNLIHSVYFLLCFNFTSERFGPRLHLPCYPMDVDTVSLSSVREEQLAVLFQRKDNLHMEIWVTTKIEPEEVMWSKLFLAVDMQPLTDFKFGIADASFIIDEEKKVVVVFAKDKDVMYPTHNTAYIIGEDGYYKEVDLGKTTDKIRDPLVCSYVPSSAQIKQGGKRKKKGKLITD
- protein production: failed

Sequence: MMSIKWEQEWDRIYKEQGEVQSEILPTVKVEKDIFKRFGCKKVMDLGCGTGRHTIYLAQNGYQVFAVDISETGIEVTRAKAEKLNLTNIEFAQLDMRNLSVDDNLMDAIMCVWTSGHGTFEDARKNLKEMYRILRLGEILVIDYVSREDENYGKGTEIEKNTFINNVEGEENIPHHYFAKEEIEELYTDFSDVDINPVDYYFTDSYGTRHTIKAFVVIAVK
- protein production: failed

Sequence: MMTAPGIYYDGRTSARRTVRLTLEGNRLLVAGEGVETSAELSRLAISSPLSTARRSVRFPSGALCEVSDTRFVDELMRRQGKGRASAAIHRWERSLPLALVALVATVAVVWGFVAFGIPALADKVARAVPPVTEVSLGRESLAMLDKLVFTPSRLPDARRRDIAAQFSRMGRDLPFAAGYRLEFRRSDQLGANALALPSGIIVVTDRLVEIAQSDDELIGVLAHEMGHVRHRHALRHVLQNSATGLIIAAITGDITSITSLAATLPTVLVDASYSRSFETEADDAAVAYLKRRGIPLKSYAAMLGRLEAEHRKKQEEKGKKEKKSLGDYFSTHPVTEERIKRVLEAGRLEHHHHHH
- protein production: not failed

Sequence: MMTGLYLGALAGIAVALAVLMAGAWVVQQLTGNSGWVDTIWTFSLGLTGAVSSLWPIDGAAPDARQWLVAVLVATWSLRLGSHIAARTRHITDDPRYAAYAAQWGTDAPKRMFFFLQNQAYGTIPLVFAIFVAAHAPAGSLRLQDYLGVLILIVAIAGEGLSDAQLKAFRENSANKGKVCDAGLWRWSRHPNYFFQWFGWLAYPVIAIPFAEPLSYLWGYAALLAPLFMYWILVYVTGIPPLEEQMLKSRGDRYRDYQARTSMFFPLPPRRSATL
- protein production: failed

Sequence: MMTKAFFNKLPFEVFRRYVRTGKSIPQRSPRTRKSLLVGGTIASAVVLYNFNDTFHDSVKHTALTTKRIAVVTQATTRCFYHYKRALNKSYENKKEREVALNKCHKMCALITLHALRSNGGIYIKLGQHIGAMTYLLPKEWTDTMIPLQDHCPESTYEEIDELFKEDLGTSIEDMFLEFNKTPIGVASLAQVHVAKLKNSDGKGSSVAVKCQHPSLKEFIPLDVMLTRTVFELLDVFFPDYPLTWLGDELQSSIYVELNFTKEAENAEKTRHYFSKFKKQTALKIPKVIESHKRILIAEYVGGKRLDDLEYIDSHGISRSEVSSCLSHIFNNMIFTPNVGIHCDPHGGNLAIRSVKPAKDNGYHNFEIVLFDHGLYRYPSTRTRRLYAKFWLSLLFDKDQTKMKKYAKGFANITDEQFPLLAAAITGRSIDAALNYDISTSRTQEEMDVMANGILEGTLLSDLMSILSRIPRVVLLILKTNDLTRHLDECLQNPLGPERTFLIMTQYCAKTVYDEKVERINSEYARWSIKWMWENLTNWIVYERRINQLYFYDFVLWWKKFIPKTWLSS
- protein production: failed

Sequence: MMTLIRITSADDSRLNRLIPLYEESFPESERRKIGQLKRMIENHAPMYFNAIECDGELSGMFVYWDMGDFYYLEHLAVFPEMRNKKIGQQVLDYVAEHLKGVRLLEVEPTEDEMTTRRVNYYRRNGYEVLDKTYVQPSYHA
- protein production: failed

Sequence: MMVGLINAIPVANKDEYKNVGVYIEHRGDEIKRSSLEMIGIGKQLARKINEKLLCVVIGDKVDGIAKEVGEYGCDIVLAAESPDLAEYRTMPYAQIIGDYIAEYKPNIFLLAATRNGRDLASRIAVKERTGITADCTVLDVDENRTLLANRPTYGESTLAEILCRNHRPQMATARPGTFTPAEKEKDHKYEIVKKKVNVDKNMLKKQIIKFIPKKATDLTAAKIVVAGGLGLGGPDGFKLLQDLADLIGGAVGSSRPPVDLGWITRDHQVGQTGQAVRPDLYVAVGISGKPQHVAGMKFSKVIISINKDPNAEINKISDYIIVEDYRKAVPALIDAIKNFGKQKVAEAQKA
- protein production: failed

Sequence: MMYSKFISFLKQIPLPICGLILGLISLGNLLYSKGYPILGNSYDMLGLFLMFLILLKIVLAMKHTISTLNDPIVASVSPTFTMSLMVLSVFLKRLSGFSLLANVTWWTALILHLILMMYFIYLHVLPKELKIHDVYPSWFITFVGIGVISATSPDFGLEVGKVVVWITLLFYFILLPIVMHRVFILRKMHKSLLPLITIITAPGSLGLVGYLTVVEAKSKIFVIFLFILSQAIYFITLGLLTKLLRSAFYPSYAAFTFPLVISATAVNLTSKLSVFQFLNLELLANMEILIAIAIVTYVLIRYCIFLGSKLVQIMSEKYSPESI
- protein production: failed

Sequence: MMYVTVMPVFLAGVANRFFCKSDILAWTYQPIDGGFTMSDGKRILGANKTWKGFWGMITLTTFCQVIWGFILGIIPHLLTFSLVKSYHNDIFFNLFIGFLMGSAYVLCELPNSFIKRRFNVSPGQLASGNARWVFLFADQIVPFLGSIAVVAIFSPMTFSYYVGYVLLAAITLFAINSLILFVEMKRK
- protein production: failed

Sequence: MNAAQVQALIRMGLPMAEDIDFRVERLDERHALARIPFHGKLVRPGGTLSGPTIMALADAAMYAVILGRLGAVEMAVTSNLNINFLSKPRPEDLLAEASILKLGRRQVVCEVGVFSQSNEEDLVAHVTGTYALPLLEHHHHHH
- protein production: not failed

Sequence: MNAARYAEHLAIFVEVARGGSFSAVARRHGATPSTITRKIDMLEEFVGTNLLVRSTRALLLTEAGETLFARGVSVLEALTDIHNEVIALSDSMYGTLRISCLPTFGKLHVLPWLADLQQRHPSMRIDLDLTERLTNPSVERLDAAIRIGKLKDSSLFAKQIGTQRWVICASPDYLRQRGHPSDLEDLRRLRLIDKLHDPHSMCWRRLVEKGHIDQIEAAFRCDDFEAMRQAALCGLGAAFLPDWVIAQDLAAGALIRLFDDPEGREDGIHLVRALPKMSAKLEVFHQALSNHLGQVRIGGCLPASR
- protein production: failed

Sequence: MNAATLVDTHAVDTALQEAFEAAPEGFALFDAEDRCVIWNARYGELWSKWGVTLAVGATFESLLLAGLAAGRFPEANGDRAAWLAHQLGRRKLDRIEEIREEFGEYLRFESRRTPAGGLITTCANLTNLRRREAQALAARSFLDTIVENTPAMLFVKDGDTGAFLLVNRAAENQLGVPRAELLGKSDYDFFPKEQADAFAADDRRVIASGKLVTIDEEPLDTPHNGRRWLQTRKIAIPGEDGRRHLLVICEDITERKAGAAALAEALQKAEAGSVAKSEFLANMSHEIRTPLNGVIGMAEVLSRTALDDAQREMMEVILNSGRALNLLLSDILDLSKIEAGGLELSRDPLDLREAITAAVAVFKAVAESKGLVFRLTFADDFHDHVLGDALRVRQIVANLTSNAVKFTTAGSVIIEARTLVAEDGRIDLTVSVQDTGEGFDEDSADRLFERFQQADGSVTRKVGGTGLGLPIARRLARLMDGEISCVAHPGEGATFVFEALFLADGQRTPALEHHHHHH
- protein production: failed
